{"source": "paper PMC6172241", "about": "“A multisubstrate reductase from Plantago major: structure-function in the short chain reductase superfamily” (Scientific Reports, 2018)", "biological_target": "PmMOR (Plantago major multisubstrate oxido-reductase) (Plantago major)", "experiment": "SEC; Superdex 200, 20 mM Tris pH 8.0, 100 mM NaCl, 1 mM TCEP; oligomeric state judged from the elution volume"}
{"substance": "PmMOR (Plantago major multisubstrate oxido-reductase) (enzyme)", "values": [{"measurement": "stoichiometry N", "value": 2}]}
